Assay: yeast display, Sf9 membrane polyspecificity reagent, FACS + sequencing; frameworks hold sequencing errors
How it was run: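 Nanobodies from a synthetic yeast display library (Saccharomyces cerevisiae BJ5465), induced 36–48 hours with galactose, were stained 1 hour at 4 °C with 10% biotinylated, detergent-solubilized Sf9 membrane reagent, enriched on streptavidin microbeads, then FACS-sorted. Anti-HA (expression) and streptavidin (reagent binding) fluorescence set low and high (top ~1%) gates. Polyreactivity labels come from the gate of origin. Genes were colony-PCR amplified, MiSeq 2 × 250 sequenced and filtered by CDR length.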

Row | Sequence | polyreactivity (PSR sort gate)
1 | QVQLVESGGGIVQAGGSLRLSCAASGRIFVGYAMVWYRQAPGKERELVAAISRGGSTNYADSVKGRFTISRDNAKNTVYLQMNSLKPEDTAVYYCAKTYRTRWWGNGGDFWGQGTQVTVSS | high polyreactivity
2 | QVQLVESGGGLVQAGGSLRLSCAASGITFDGYGMGWYRQAPGKERQLVAAITYSGGRTYYADSVKGRFTISRDIEKNTVYLQMNSLKPEDTAVYYCAVVSRRLYEYDYWGQGTQVTVSS | high polyreactivity
3 | QVQLVESGGGLVQAGGSLRLSCAASGSTVWWYAMGWDRQAPRKERELVAVITRSSDSTSYADSVKGRFTLSRDNAKNTVFLQMNSLKPEDTAVYYCAALYRSYRYEYYYWGQATQVTVSS | high polyreactivity
4 | QVQLVESGGGLVQAGGSLRLSCAASGRIFKYYTMGWYRQAPGKERELVAAISRDDSTNYADSVKGRFTISRDNAKNTVYLQMNSLKPEDTAVYYCAKGYHQYAGFYYWGQGTQVTVSS | high polyreactivity
5 | QVQLVESGGGLVQAGGSLRLSCAASGFIFVYYGMVWYRQAPGKERELVAAISRSGGSTYYADSVKGRFTISRDNAKNTVYLQMNSLKPEDTAVYYCNVVRWYYHPPLTGSRFDYWGHGTQVTVSS | high polyreactivity
6 | QVHLVESGGGLVQAGGSLRLTCAASGRILWSYAMGWYRQAPGKERELVAAITSGTRTNYADSVKGRFTISRDNAKNTVYLQMNSVKPEDTAVFSCNAVSLRYRFDYWGQGTQLTVSS | high polyreactivity
7 | QVQLVESGGGLVEAGGSLRLTCAASGYIIGGNAMGWYRQAPGKERELVAVISSRGGRTYYSDSVKGRFTISRDNAKNTVYLQLNSLKPEDTEVYYCYRVFSYQYKRDYWGQGTQVTVSS | high polyreactivity
8 | QVQLVESGGGLVQAGGSLRLSCAASGFIFTRNVMGWYRQAPGKERELVAAISSGGRTYYADSVKGRFTISRDNAKNTVYLQMNRLKPEDTAVYYCSIVSKFTGDYGYWGQGTQVTVSS | high polyreactivity
9 | QVQLEESRGGLVQAGGSLRLSCAASGNIFGSNAMGWYRQAPGKERGLVAAISGSNGGTYYADSVKGRFTISRDYAKNTVYLQMNSLTPEDTAVYFCAAVWYLEDHHDYYYWGQGTQVTVSS | low polyreactivity
10 | QVQLVESGGGLVQAGGSLRLSCAASGRIFTANAMGWYRQAPGKERELVAAITTSDGTYYADSVKGRFTISRDNAKNTVYLQMNSLKPEDTAVYYCATDTATYPTAMDYWGQGTQVTVSS | low polyreactivity
11 | QVQLVESGGGLVQAGGSLRLSCAASGFTFGWYAMGWYRQAPGKDWEFVAAISRSGGSTYYADSVKGRFTISRDNAKNTVYLQMNSLKPEDTAVYYCAAYIIGDTHAEYDYWGQGTQVTVSS | high polyreactivity
12 | QVQLVESGGGLVQAGGSLRLSCAASGIIFRGYAMGWDRQAPGQERELVAVIDRSGARTNYADSVTGRFTISRDNAKNTVYLQMNSLKPEDTAVYYCAASGVRAYSGLGYWGQGSQVTVSS | high polyreactivity
13 | QVQLVESGGGLVQAGGSLRLSCAASGSIFLFNAMGWYRQAPGKERELVAAINRDDSTYYADSVKGRFTISRDNAKNTVYLQMNSLKPEDTAVYYCAAPVLHASYGYGYWGQGTQGTVSS | low polyreactivity
14 | QVQLVESGGGLVQAGGSLRLSCAASGSIFGSNAMGWYRQAPGKERELVAAISSRAGRTYYADSVKGRFTISRDNAKNTVYLQMNSLKPEDTAVYYCAALYWVYRNRWLYDYWGLGTQVTVSS | high polyreactivity
15 | QVQRVESGGGLVQAGGSLRLSCAASGIFYWYGMGWYRQAPGKDRELVASITGGGRTYYADSVKGRFTISRDNAKNTVYLQMNSLKPEDTAVNYCATRYWGGLPRRWYDYWGQGTQVTVSS | high polyreactivity
16 | QVQLVESGGGLVQAGGSLRLSCAASGRTFSAYAMGWSRQAPGKERELVAAISRSGGRTYYADSVKGRFTISRDNAKNTVYLQMNSLKPEDTAVYYCAAGSNIWGQGTQVTVSS | high polyreactivity
17 | QVQLVESGGGLVQAGGRLRLSCAASGFTFRYYALGWYRQAPGKERELVAAISAGGGSTYYADSVKGRFTISRDNAKNNVYLQMHSQKPDDTAVYYCASAGARPGYDYWGQCTQVTVSS | high polyreactivity

— the nanobody polyreactivity screen of Harvey et al. (2022)
